For series [1], the target named is 4-fold tyrosine-phosphorylated C-Tir (pC-Tir), EPEC Tir residues 388-550 phosphorylated by Fyn (enteropathogenic Escherichia coli (EPEC)) (UniProt B7UM99). The series can be described thus: NMR titration.
The series “SEC + other: SAXS” deals with the molecule itself. The experiment in a line: SEC + other: SAXS.

Sequence of 4-fold tyrosine-phosphorylated C-Tir (pC-Tir), EPEC Tir residues 388-550 phosphorylated by Fyn (enteropathogenic Escherichia coli (EPEC)) (B7UM99 388-550): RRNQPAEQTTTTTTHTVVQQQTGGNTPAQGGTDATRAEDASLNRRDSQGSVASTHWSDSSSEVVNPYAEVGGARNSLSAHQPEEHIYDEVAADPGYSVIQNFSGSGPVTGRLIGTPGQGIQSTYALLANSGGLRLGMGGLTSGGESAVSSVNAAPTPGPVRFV

With “C-terminal SH2 domain (C-SH2) of host tyrosine phosphatase SHP-1 (domain or fragment)”, in series [1], the apparent local KD of the remaining pY sites (pY474, pY483, pY511) fell in the range of 3 to 9 μM and the fold enhancement of binding at the Y511 ITIM against unphosphorylated C-Tir came to 10 fold.

B1: Structured central part of N-Tir (N-Tir 60-200, NS-Tir) (domain or fragment, enteropathogenic Escherichia coli (EPEC), UniProt B7UM99 60-200, looked up)
chain: SVDSRDIPGLPTNPSRLAAATSETCLLGGFEVLHDKGPLDILNTQIGPSAFRVEVQADGTHAAIGEKNGLEVSVTLSPQEWSSLQSIDTEGKNRFVFTGGRGGSGHPMVTVASDIAEARTKILAKLDPDNHGGRQPKDVDT
Broadly, the stoichiometry N is a count of units in the complex or per binding partner. With B1, the “stoichiometry N” value in “SEC + other: SAXS” is 2.

B2: N-terminal cytosolic region of EPEC Tir (N-Tir, residues 1-233) (domain or fragment, enteropathogenic Escherichia coli (EPEC), UniProt B7UM99 1-233, looked up)
chain: MPIGNLGNNVNGNHLIPPAPPLPSQTDGAARGGTGHLISSTGALGSRSLFSPLRNSMADSVDSRDIPGLPTNPSRLAAATSETCLLGGFEVLHDKGPLDILNTQIGPSAFRVEVQADGTHAAIGEKNGLEVSVTLSPQEWSSLQSIDTEGKNRFVFTGGRGGSGHPMVTVASDIAEARTKILAKLDPDNHGGRQPKDVDTRSVGVGSASGIDDGVVSETHTSTTNSSVRSDPK
For the molecule B2, in “SEC + other: SAXS”, the “stoichiometry N” value came to 2.

These data come from article doi:10.1101/2021.04.22.440577 (bioRxiv, 2021).
